# B1: VHH15 (VHH)
# VHH: QVQGAGLWGGLVQLGGSLRLSCAASGFTFGYYAMSWVRQAPGKGLEWVSYINDNGGYTAYTDPVKGRFTISRDNAKNILYLHMNNLKPEDTAVYFCAKWGTDAVSSSRYKSHDYDSRGPGTQVTVSS
# B2: VHH1 (VHH)
# VHH: QVQLQDSGGGLVQAGDRLSLSCAASGRTFSSYDMAWFRQAPGKEREFVAAITTSEGTWYGDAGKGRFTIARVNAKNTVYLHMNRLKPEDTAVYYCAASNQGGSLQISTNYNYWGQGTQVTVSS
# B3: VHH2 (VHH)
# VHH: QVQLQESGGGLVQAGDSLRLSCAASGRTFSSYAMGWFRQAPGKEREFVAAVSSSNSPWYGDSIKGRSTIHRDNAKNTVYLYMNNLKPEDTAVYYCAADLEGERLGESSEYDYWGQGTQVTVSS
# B4: VHH3 (VHH)
# VHH: QVQLQESGGGLVQPGGSLRLSCAASGFTFKYYAMSWVRQAPGKGLEWVSYINDNGGYTDYSDSVKGRFTISRDNAKNTLYLHMNRLKPEDTAVYFCAKWDTDAVSSSRYKTHNGDIRGPGTQVTVSS
# Target: rhesus rotavirus strain RRV
# Assay: cell-based or functional assay
row,Binder,% infection of MA104 cells relative to irrelevant VHH (NSP4 Western blot densitometry)
1,B1,40%
2,B2,40%
3,B3,40%
4,B4,40%
